Laboratory results from the supplement of paper PMC9112550, “Optimization of the antimicrobial peptide Bac7 by deep mutational scanning” (BMC Biology, 2022).

Test system: Escherichia coli TOP10
Assay: shrunken log2 fold change of peptide-encoding DNA abundance (4.5 h post-induction vs induction); higher = less antimicrobial activity (less host growth inhibition)
Conditions: time post-induction: 4.5 h; library: site-saturation at positions 5, 18, 19, 20
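Also: peptides expressed intracellularly from a pBAD plasmid library in pooled LB shake-flask culture, induced with 0.3% L-arabinose, DNA abundance read by NGS, three biological replicates, DESeq2 with apeglm shrinkage.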

| Sequence | shrunken log2 fold change |
| --- | --- |
| RRIRQRPPRLPRPRPRPCMEPRP | -0.1 |
| RRIRPRPPRLPRPRPRPGMWPRP | 0.303 |
| RRIRRRPPRLPRPRPRPQFIPRP | -0.387 |
| RRIRARPPRLPRPRPRPIHKPRP | -0.0416 |
| RRIRIRPPRLPRPRPRPCKYPRP | -1.03 |
| RRIRMRPPRLPRPRPRPNCAPRP | 0.317 |
| RRIRCRPPRLPRPRPRPAMLPRP | 0.0443 |
| RRIRLRPPRLPRPRPRPGGDPRP | 0.152 |
| RRIRIRPPRLPRPRPRPSIRPRP | -0.212 |
| RRIRSRPPRLPRPRPRPGRQPRP | -0.00462 |
| RRIRSRPPRLPRPRPRPDEKPRP | -0.0769 |
| RRIRRRPPRLPRPRPRPWHEPRP | 0.041 |
| RRIRVRPPRLPRPRPRPCNIPRP | 0.0254 |
| RRIRWRPPRLPRPRPRPHPEPRP | 0.275 |
| RRIRGRPPRLPRPRPRPMMSPRP | 0.136 |
| RRIRWRPPRLPRPRPRPCCKPRP | 0.0725 |
| RRIRERPPRLPRPRPRPRTGPRP | 0.0617 |
| RRIRNRPPRLPRPRPRPYIQPRP | -0.244 |
| RRIRNRPPRLPRPRPRPKMQPRP | -0.0708 |
| RRIRYRPPRLPRPRPRPPHYPRP | -0.686 |
| RRIRGRPPRLPRPRPRPQLLPRP | 0.253 |

| Sequence | shrunken log2 fold change |
| --- | --- |
| RRIRFRPPRLPRPRPRPWQIPRP | -0.0302 |
| RRIRTRPPRLPRPRPRPGCAPRP | 0.515 |
| RRIRPRPPRLPRPRPRPFCYPRP | -0.26 |
| RRIRVRPPRLPRPRPRPPNKPRP | -0.0216 |
| RRIRFRPPRLPRPRPRPWGNPRP | 0.117 |
| RRIRVRPPRLPRPRPRPITAPRP | -0.272 |
| RRIRQRPPRLPRPRPRPWAWPRP | -0.0707 |
| RRIRDRPPRLPRPRPRPQCAPRP | 0.0622 |
| RRIRPRPPRLPRPRPRPNNGPRP | -0.335 |
| RRIRPRPPRLPRPRPRPMWFPRP | -0.113 |
| RRIRQRPPRLPRPRPRPVPMPRP | 0.132 |
| RRIRARPPRLPRPRPRPENFPRP | 0.0336 |
| RRIRERPPRLPRPRPRPSILPRP | -0.623 |
| RRIRARPPRLPRPRPRPFQFPRP | -0.158 |
| RRIRRRPPRLPRPRPRPCYLPRP | -0.499 |
| RRIRVRPPRLPRPRPRPFNDPRP | -0.416 |
| RRIRGRPPRLPRPRPRPTWIPRP | 0.25 |
| RRIRERPPRLPRPRPRPSMMPRP | -0.257 |
| RRIRPRPPRLPRPRPRPPQYPRP | 0.189 |
| RRIRYRPPRLPRPRPRPRQMPRP | -0.0779 |
| RRIRSRPPRLPRPRPRPGSCPRP | 0.0634 |

| Sequence | shrunken log2 fold change |
| --- | --- |
| RRIRPRPPRLPRPRPRPDSPPRP | 0.0152 |
| RRIRHRPPRLPRPRPRPSEWPRP | -0.0167 |
| RRIRRRPPRLPRPRPRPVAWPRP | 0.341 |
| RRIRCRPPRLPRPRPRPCCGPRP | -0.0934 |
| RRIRPRPPRLPRPRPRPILAPRP | 0.273 |
| RRIRYRPPRLPRPRPRPNAKPRP | -0.0394 |
| RRIRCRPPRLPRPRPRPLARPRP | 0.0547 |
| RRIRSRPPRLPRPRPRPPTEPRP | 0.194 |
| RRIRLRPPRLPRPRPRPHQEPRP | -0.00192 |
| RRIRDRPPRLPRPRPRPVDCPRP | -0.0327 |
| RRIRCRPPRLPRPRPRPWAFPRP | -0.0432 |
| RRIRFRPPRLPRPRPRPWHQPRP | -0.338 |
| RRIRFRPPRLPRPRPRPAWLPRP | 0.231 |
| RRIRARPPRLPRPRPRPFPPPRP | 0.332 |
| RRIRLRPPRLPRPRPRPLFFPRP | 0.417 |
| RRIRGRPPRLPRPRPRPKWRPRP | 0.795 |
| RRIRHRPPRLPRPRPRPPLQPRP | -0.127 |
| RRIRNRPPRLPRPRPRPSWSPRP | -0.0724 |
| RRIRGRPPRLPRPRPRPHPIPRP | -0.0927 |
| RRIRRRPPRLPRPRPRPYVLPRP | 0.00941 |
| RRIRARPPRLPRPRPRPLGDPRP | 0.281 |

| Sequence | shrunken log2 fold change |
| --- | --- |
| RRIRYRPPRLPRPRPRPPCFPRP | -0.242 |
| RRIRPRPPRLPRPRPRPDFRPRP | -0.184 |
| RRIRRRPPRLPRPRPRPKCTPRP | -0.373 |
| RRIRNRPPRLPRPRPRPMVMPRP | -0.383 |
| RRIRTRPPRLPRPRPRPVEHPRP | 0.0387 |
| RRIRQRPPRLPRPRPRPTKNPRP | 0.0334 |
| RRIRWRPPRLPRPRPRPIFGPRP | 0.0623 |
| RRIRDRPPRLPRPRPRPVNGPRP | -0.0115 |
| RRIRCRPPRLPRPRPRPHKRPRP | 0.0953 |
| RRIRLRPPRLPRPRPRPEDKPRP | -0.0384 |
| RRIRQRPPRLPRPRPRPWTSPRP | 0.0602 |
| RRIRTRPPRLPRPRPRPTLPPRP | 0.149 |
| RRIRKRPPRLPRPRPRPELKPRP | 0.978 |
| RRIRERPPRLPRPRPRPTKCPRP | 0.0642 |
| RRIRMRPPRLPRPRPRPHKCPRP | 0.0429 |
| RRIRSRPPRLPRPRPRPKDPPRP | 0.226 |
| RRIRRRPPRLPRPRPRPPLFPRP | 0.464 |
| RRIRTRPPRLPRPRPRPHRSPRP | 0.0963 |
| RRIRHRPPRLPRPRPRPWCNPRP | -0.417 |
| RRIRSRPPRLPRPRPRPQDGPRP | -0.0336 |
| RRIRERPPRLPRPRPRPLKIPRP | -0.402 |
